IntAct's records for PubMed 9647694

B1: ATP-sensitive inward rectifier potassium channel 10 (Mus musculus), Q9JM63 (parent)
chain: MTSVAKVYYSQTTQTESRPLVAPGIRRRRVLTKDGRSNVRMEHIADKRFLYLKDLWTTFIDMQWRYKLLLFSATFAGTWFLFGVVWYLVAVAHGDLLELGPPANHTPCVVQVHTLTGAFLFSLESQTTIGYGFRYISEECPLAIVLLIAQLVLTTILEIFITGTFLAKIARPKKRAETIRFSQHAVVASHNGKPCLMIRVANMRKSLLIGCQVTGKLLQTHQTKEGENIRLNQVNVTFQVDTASDSPFLILPLTFYHVVDETSPLKDLPLRSGEGDFELVLILSGTVESTSATCQVRTSYLPEEILWGYEFTPAISLSASGKYIADFSLFDQVVKVASPSGLRDSTVRYGDPEKLKLEESLREQAEKEGSALSVRISNV

Variants of: B1
Settings: with inadl_mouse Patj

| Variant | effect of a mutation on the interaction |
| --- | --- |
| S377G | disrupting interaction |
| V379A | disrupting interaction |
